Laboratory results from article PMC4237329, “Early Chordate Origin of the Vertebrate Integrin αI Domains” (PLoS ONE, 2014).
Like-named read-outs stand apart in the source and are kept apart here.

B1: Pma_f2 αI domain (sea lamprey integrin α subunit fragment Pma_f2), GST-fusion protein (domain or fragment, sea lamprey (Petromyzon marinus))
chain: ADFQVTSTLTPAAQRCGLFMDIVIVLDGSNSIYPWQEVQNFVINIVKKFHIGPGQSRNGGGSTRFGVRTIHWHLGIARWACEGVQDVENIYSRPFVRTASALCQSLQVVRSEAFSPLFGAREGASKVMIVVTDGESHDSEDLTEAIAACERDNITRYAIAVLGYYKRKNIDPSNFISELKAISSEPEEKHFINVADEAALNDIVGTLGERIFSLEGTV
notes: also called Pma αI domains; source: E. coli BL21 tuner (gene synthesized, in pGEX-2T), recombinant GST-fusion protein, "sufficiently pure"

Target: T1, rat tail collagen I (rat, UniProt P02454 152-1207; P02466 86-1125)
T1 construct: collagen α1(I) chain, rat; collagen α2(I) chain, rat; also called rat collagen I; source: bought: Sigma Aldrich (rat tail collagen I)
Test: solid-phase binding assay (Europium-labelled anti-GST antibody, time-resolved fluorescence); 96-well plates coated with rat collagen I; GST-αI domain at various concentrations, one hour at RT, PBS + 2 mM MgCl2; apparent affinity constants from a hyperbolic fit (Hill's equation with h = 1)

T1 sequence (P02454 152-1207, chain 1 of 2): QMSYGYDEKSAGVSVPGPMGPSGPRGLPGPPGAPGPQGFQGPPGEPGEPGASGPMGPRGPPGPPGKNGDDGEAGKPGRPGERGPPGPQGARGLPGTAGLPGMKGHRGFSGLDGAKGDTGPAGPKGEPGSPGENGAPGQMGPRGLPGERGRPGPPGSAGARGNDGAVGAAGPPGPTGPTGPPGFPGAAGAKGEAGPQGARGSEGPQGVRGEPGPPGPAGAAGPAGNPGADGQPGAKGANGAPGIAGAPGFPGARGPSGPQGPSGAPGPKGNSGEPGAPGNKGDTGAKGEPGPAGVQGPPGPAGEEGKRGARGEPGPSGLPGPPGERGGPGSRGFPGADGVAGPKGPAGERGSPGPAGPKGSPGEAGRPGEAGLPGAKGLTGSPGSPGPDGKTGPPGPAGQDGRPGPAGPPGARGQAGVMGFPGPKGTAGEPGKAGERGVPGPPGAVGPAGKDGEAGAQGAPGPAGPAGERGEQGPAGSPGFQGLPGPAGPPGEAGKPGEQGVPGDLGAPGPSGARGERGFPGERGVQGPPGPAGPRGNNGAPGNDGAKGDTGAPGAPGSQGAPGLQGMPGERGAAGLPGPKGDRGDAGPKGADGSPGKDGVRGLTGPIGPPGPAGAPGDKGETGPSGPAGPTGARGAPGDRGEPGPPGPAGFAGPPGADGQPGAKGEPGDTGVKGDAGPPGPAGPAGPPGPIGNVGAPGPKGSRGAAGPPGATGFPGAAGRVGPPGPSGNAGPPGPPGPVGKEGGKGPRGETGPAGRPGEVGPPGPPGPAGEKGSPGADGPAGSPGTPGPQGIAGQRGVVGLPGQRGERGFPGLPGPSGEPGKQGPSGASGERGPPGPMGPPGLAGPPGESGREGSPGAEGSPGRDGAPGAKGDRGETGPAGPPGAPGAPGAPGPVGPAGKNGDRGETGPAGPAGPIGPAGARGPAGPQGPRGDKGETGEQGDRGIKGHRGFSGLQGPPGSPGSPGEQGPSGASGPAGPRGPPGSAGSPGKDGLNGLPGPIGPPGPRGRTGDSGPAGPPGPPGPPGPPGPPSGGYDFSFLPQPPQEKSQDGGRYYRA
T1 sequence (P02466 86-1125, chain 2 of 2): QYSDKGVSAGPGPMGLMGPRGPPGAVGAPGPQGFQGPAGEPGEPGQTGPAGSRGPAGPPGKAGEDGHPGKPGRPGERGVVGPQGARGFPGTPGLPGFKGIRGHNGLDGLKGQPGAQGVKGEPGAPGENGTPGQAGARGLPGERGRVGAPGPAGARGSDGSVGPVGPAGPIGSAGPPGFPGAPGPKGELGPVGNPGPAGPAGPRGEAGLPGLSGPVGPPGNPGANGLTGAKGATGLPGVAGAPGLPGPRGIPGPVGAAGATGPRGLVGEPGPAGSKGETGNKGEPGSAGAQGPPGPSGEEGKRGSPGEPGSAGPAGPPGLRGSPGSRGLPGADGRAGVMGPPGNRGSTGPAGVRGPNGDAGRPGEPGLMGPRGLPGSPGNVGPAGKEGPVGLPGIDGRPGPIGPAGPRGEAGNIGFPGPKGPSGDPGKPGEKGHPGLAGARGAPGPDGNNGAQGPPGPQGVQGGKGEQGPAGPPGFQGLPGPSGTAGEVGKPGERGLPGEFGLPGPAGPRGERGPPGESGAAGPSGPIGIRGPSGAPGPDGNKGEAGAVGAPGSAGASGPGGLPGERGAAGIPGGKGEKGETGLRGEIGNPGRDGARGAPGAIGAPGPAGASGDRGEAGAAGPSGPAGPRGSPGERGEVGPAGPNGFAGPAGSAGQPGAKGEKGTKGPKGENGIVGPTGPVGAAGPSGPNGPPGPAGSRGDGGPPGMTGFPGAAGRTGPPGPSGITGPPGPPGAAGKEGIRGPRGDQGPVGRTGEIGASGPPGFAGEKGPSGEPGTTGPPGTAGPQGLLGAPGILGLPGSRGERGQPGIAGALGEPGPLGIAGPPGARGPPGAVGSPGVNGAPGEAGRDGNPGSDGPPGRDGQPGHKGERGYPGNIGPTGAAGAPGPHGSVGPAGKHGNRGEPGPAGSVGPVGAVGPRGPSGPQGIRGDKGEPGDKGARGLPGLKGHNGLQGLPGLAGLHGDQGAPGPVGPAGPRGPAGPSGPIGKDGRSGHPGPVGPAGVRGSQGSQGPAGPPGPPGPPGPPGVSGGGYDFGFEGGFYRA

Molecule | Kd | Kd (both partners purified)
Pma_f1 αI domain (sea lamprey integrin α subunit fragment Pma_f1), GST-fusion protein (domain or fragment) | 200 nM | –
Pma_f3 αI domain (sea lamprey integrin α subunit fragment Pma_f3), GST-fusion protein (domain or fragment) | 195 nM | –
B1 | – | 375 ± 120 nM
